Measured values as given in US20100330076A1 (RESEARCH DEVELOPMENT FOUNDATION, published 2010).
Residue numbers refer to the chain shown, from its start.

B1: Fc611 (other)
chain: DKTHTCPPCPAPELLGGPSVFLFPPKPKDTLMISRTPEVTCVVVDVSHEDPEVKFNWYVDGVEVHNAKTKPREEQYNSTYRVVSVLTVLHQDWLNGKEYKCKVSNKALPAPIEKTISKAKVQPREPQVYTLPPSRDELTKNQVSLTCLVKGFYPSDIAVEWVSNGQPENNYKTTPPVLDSDGSFFLYSKLTVDKSRWQQGNVFSCSVIHEALHNHYTQKSLSLSPGK
notes: Aglycosylated Fc fragment (E. coli, pPelBFLAG), assayed on spheroplasts; not shown: C-terminal FLAG tag from pPelBFLAG
B2: Fc705 (other)
chain: B1 chain with L108W, A110E, P111V, I112Y, V121G
notes: as for B1
B3: Fc612 (other)
chain: B1 chain with N56D
notes: as for B1
B4: Fc704 (other)
chain: B1 chain with L108W, A110E, P111V, I112Y, V121G, S206T
notes: as for B1
B5: Fc601 (other)
chain: B1 chain with K118R
notes: Aglycosylated Fc fragment (E. coli, pPelBFLAG), assayed on spheroplasts; also called IgG1-Fc601; not shown: C-terminal FLAG tag from pPelBFLAG
B6: Fc617 (other)
chain: B1 chain with V128M
notes: as for B1
B7: Fc708 (other)
chain: B1 chain with L108W, P111S, I112Y, V121G
notes: as for B1
B8: Fc618 (other)
chain: B1 chain with V121G, N214S
notes: as for B1
B9: Fc613 (other)
chain: B1 chain with V149A
notes: as for B1
B10: Fc610 (other)
chain: B1 chain with F21L
notes: as for B1
B11: Fc609 (other)
chain: B1 chain with K118R, S204L, N214D
notes: as for B1
B12: Fc616 (other)
chain: B1 chain with Y80C
notes: as for B1
B13: Fc703 (other)
chain: B1 chain with L108W, A110E, P111E, I112Y, V121G
notes: as for B1
B14: Fc702 (other)
chain: B1 chain with V59M, L108W, A110E, P111E, I112Y, V121G
notes: as for B1
B15: Fc707 (other)
chain: B1 chain with L108W, A110E, I112Y, V121G
notes: as for B1
B16: Fc615 (other)
chain: B1 chain with N105S
notes: as for B1
B17: Fc614 (other)
chain: B1 chain with N66D, N214S
notes: as for B1
B18: Fc701 (other)
chain: B1 chain with Q75R, L108W, A110V, P111A, I112Y, V121G
notes: Aglycosylated Fc fragment (E. coli, pPelBFLAG), assayed on spheroplasts; also called IgG1-Fc701; not shown: C-terminal FLAG tag from pPelBFLAG
B19: Fc706 (other)
chain: B1 chain with L108W, A110I, P111E, I112Y, V121G
notes: as for B1
B20: Fc619 (other)
chain: B1 chain with V46M, V121G
notes: as for B1
B21: Fc604 (other)
chain: B1 chain with K118I, K120N, V121G
notes: as for B1
B22: Fc603 (other)
chain: B1 chain with K120N, V121G
notes: as for B1
B23: Fc608 (other)
chain: B1 chain with K172E
notes: as for B1
B24: Fc602 (other)
chain: B1 chain with N77D, N95D, K120N, V121G
notes: as for B1
B25: Fc607 (other)
chain: B1 chain with H4Y, E49K, N105S
notes: as for B1
B26: Fc605 (other)
chain: B1 chain with K120Q, V121G, A158D
notes: as for B1
B27: Fc606 (other)
chain: B1 chain with N105S, K120N, V121G
notes: as for B1

target: T1, extracellular domain of recombinant glycosylated FcγRIa/CD64 (R&D Systems) labeled with FITC (human, UniProt P12314 16-292, FITC-labeled; glycosylated); experiment: flow cytometry of E. coli spheroplasts expressing the Fc fragment, labeled with FcγRIa-FITC
T1 construct: extracellular domain; it is not restated for the bought reagent; also called FcγRIa-FITC; FcγRI-FITC
T1 sequence (P12314 16-292): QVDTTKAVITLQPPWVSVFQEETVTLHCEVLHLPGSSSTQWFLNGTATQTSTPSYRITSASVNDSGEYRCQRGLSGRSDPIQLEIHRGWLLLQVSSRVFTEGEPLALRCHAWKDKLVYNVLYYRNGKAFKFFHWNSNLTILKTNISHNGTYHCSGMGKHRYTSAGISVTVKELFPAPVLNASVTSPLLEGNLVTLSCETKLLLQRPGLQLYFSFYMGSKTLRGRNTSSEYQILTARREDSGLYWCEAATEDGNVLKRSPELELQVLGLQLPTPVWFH

Binding result, binds:
B1, B2, B3, B4, B5, B6, B7, B8, B9, B10, B11, B12, B13, B14, B15, B16, B17, B18, B19, B20

target: T1, extracellular domain of recombinant …; experiment: flow cytometry of E. coli spheroplasts labeled with FcγRIa-FITC (summary in Example 3)

Binding result, binds:
B21, B22, B23, B24, B25, B26, B27
